Experimental data: paper PMC5454105

Assays:
[1] = target: WipA411 (WipA 33-411) (Legionella pneumophila) (UniProt Q5ZS02); test: SEC-MALS
[2] = target: WipA (IcmW-interacting protein A; lpg2718), full-length protein (Legionella pneumophila) (UniProt Q5ZS02); test: SEC-MALS

Row | Substance | stoichiometry N [1] | stoichiometry N [2]
1 | WipA411 (WipA 33-411) (from UniProt Q5ZS02 33-411) (domain or fragment) | 2 | 
2 | WipA (IcmW-interacting protein A; lpg2718), full-length protein (from UniProt Q5ZS02 1-520) (enzyme) |  | 2
